Laboratory results taken from patent US8551717B2, “Method for determining sumoylation” (Medizinische Hochschule Hannover, priority 2008, dated 2013).

Experiments:
Format in all cases: cell-based
CSNK2B-U = molecular target: T1, CSNK2B-U (Homo sapiens, UniProt P63279+P67870); test: Trans-SUMOylation by CSNK2B-U; conditions: protein 2 construct coexpressed with CSNK2B-U and EGFP-SUMO1 in HEK293, Table 1
T1 construct: expressed in transfected cells; host or cells: HEK293

U-MK2 = molecular target: T2, U-MK2 (Homo sapiens, UniProt P49137+P63279); test: Trans-SUMOylation by U-MK2; conditions: protein 2 construct coexpressed with U-MK2 and EGFP-SUMO1 in HEK293
T2 construct: expressed in transfected cells; host or cells: HEK293

JUN-U = molecular target: T3, JUN-U (Homo sapiens, UniProt P05412+P63279); test: Trans-SUMOylation by JUN-U; conditions: protein 2 construct coexpressed with JUN-U and EGFP-SUMO1 in HEK293; western blot; Table 2
T3 construct: expressed in transfected cells; host or cells: HEK293

U-p38α = molecular target: T4, U-p38α (Homo sapiens, UniProt P63279+Q16539); test: Trans-SUMOylation by U-p38α; conditions: protein 2 construct coexpressed with U-p38α and EGFP-SUMO1 in HEK293
T4 construct: expressed in transfected cells; host or cells: HEK293

p53-U = molecular target: T5, p53-U (Homo sapiens, UniProt P04637+P63279); test: Trans-SUMOylation by p53-U; conditions: western blot
T5 construct: expressed in transfected cells; host or cells: HEK293

MK2-U = molecular target: T6, MK2-U (Homo sapiens, UniProt P49137+P63279); test: Trans-SUMOylation by MK2-U; conditions: protein 2 construct coexpressed with MK2-U and EGFP-SUMO1 in HEK293
T6 construct: expressed in transfected cells; host or cells: HEK293

U-MK5 = molecular target: T7, U-MK5 (Homo sapiens, UniProt P63279+Q8IW41); test: Trans-SUMOylation by U-MK5; design: key: (++), strong TransSUMOylation; (+), TransSUMOylation; (+/−) weak TransSUMOylation; (−) no detectable TransSUMOylation; conditions: protein 2 construct coexpressed with U-MK5 and EGFP-SUMO1 in HEK293, western blot
T7 construct: expressed in transfected cells; host or cells: HEK293
Excerpt: (§1) To identify new SUMOylation substrates and to study the function of SUMOylation the Ubc9/substrate dimerisation-dependent SUMOylation system (USDDS) was developed which consists of fusions of the SUMOylation substrate and of the SUMO-conjugating enzyme Ubc9 to the chemically activatable heterodimerisation domains FKBP and FRB, respectively, as shown in FIG. 2. When the substrate protein fused to FKBP is coexpressed with Ubc9-FRB, treatment of HEK293 cells with the rapamycin-related dimerizer AP21967 induces SUMOylation of the substrate protein fused to FKBP at its specific SUMOylation site. […] Dependent on an EcoRl site in the coding sequence, seven C-terminal amino acids of the human STAT1a in the STAT1-FKBP/FRB fusion proteins are missing. For the SUMOylation analysis HEK293 (human embryonic kidney cells) cells have been used. HEK293 cells were cultured in Dulbecco's modified Eagle's medium with high glucose, complemented with 10% fetal calf serum, 2 mM L-glutamine, 100 U/ml penicillin and […] streptomycin. We performed transfection of HEK293 cells using the polyethylenimine transfection reagent. HEK293 cells of a fresh confluent 10 cm plate were transferred on a 12-well plate. After 12-24 h incubation about 70% cell confluence is reached. For each well 45 μl of serum/antibiotic free DMEM medium is mixed with 750 ng of the transfection-purity expression vector DNA (all together 47 μl) and vortexed. Then, 3 μl of vortexed polyethylenimin stock solution (1 mg/ml) is added and the mixture is vortexed. After incubation at room temperature for 10 min 450 μl fresh DMEM with antibiotics is added to the mixture and vortexed. The medium on the cells was then completely removed and immediately, the 500 μl transfection mix was added carefully to each well. The 12 well plate was rocked to ensure a proper distribution of the DNA/transfection reagent complex. After an incubation of the cells for 24 h at a 37° C. in a humidified CO2-incubator (5%) the cells were lysed in 150 μl Laemmli (2×) gel loading buffer (160 mM Tris-HCL, pH 6.8, 4% (w/v) sodium dodecyl sulphate (SDS), 20% (v/v) glycerol, 0.5% β-mercaptoethanol (v/v), 0.008% (w/v) bromophenol blue) and incubated for 10 min at 95° C. For western blot analysis the proteins were separated by SDS-PAGE, blotted on a PVDF membrane and developed with specific primary antibodies (α-Ubc9 (H81, Santa Cruz), α-pY701-STAT1 (Tyr701, Cell Signaling), α-STAT1 (Cell Signaling), α-p53 (1C12, Cell Signaling), α-SUMO1 (Cell Signaling), a horseradish peroxidase (HRP)-conjugated secondary antibody (different companies), the ECL+ (Amersham) or Immobilon™ Western (Millipore) and the LAS-3000 imaging system (Fuji).
As shown above, the SUMOylation of a protein of interest can be induced by the heterodimerisation with a binding protein fused to Ubc9. To find out if Trans-SUMOylation is useful for the characterisation of common protein interactions, protein binding pairs well known from the literature or found in two hybrid screens. […] Therefore the protein pairs were coexpressed with EGFP-SUMO1 in HEK293 cells and after 24h the transfectants were lysed and the protein extracts were analyzed in western blots.
Protein-protein interactions described in the cited references were tested for Trans-SUMOylation. Each specific protein-protein interaction was tested by coexpression of different combinations of protein 1 fused to Ubc9 (U) with protein 2 mostly fused two a tag (HA, FLAG, Myc, GST, ST). (++), strong TransSUMOylation; (+), TransSUMOylation; (+/−) weak TransSUMOylation; (−) no detectable TransSUMOylation; (MEKK1ca) the activated MAP3 kinase MEKK1, that can enhance protein SUMOylation, was coexpressed.
Protein-protein interaction of each pair of protein 1/protein 2 was tested by coexpression of different combinations of a protein 1 fused to Ubc9 (U) with protein 2 mostly fused two a Tag (HA, FLAG, GST, ST). […]

U-CSNK2B = molecular target: T8, U-CSNK2B (Homo sapiens, UniProt P63279+P67870); test: Trans-SUMOylation by U-CSNK2B; design: key: (++), strong TransSUMOylation; (+), TransSUMOylation; (+/−) weak TransSUMOylation; (−) no detectable TransSUMOylation; conditions: protein 2 construct coexpressed with U-CSNK2B and EGFP-SUMO1 in HEK293, western blot
T8 construct: expressed in transfected cells; host or cells: HEK293
Excerpt: as §1, with “The 12 well plate was rocked to ensure a proper distribution of the DNA/transfection reagent complex. After an incubation of the cells for 24 h at a 37° C. in a humidified CO2-incubator (5%) the cells were lysed in 150 μl Laemmli (2×) gel loading buffer (160 mM Tris-HCL, pH 6.8, 4% (w/v) sodium dodecyl sulphate (SDS), 20% (v/v) glycerol, 0.5% β-mercaptoethanol (v/v), 0.008% (w/v) bromophenol blue) and incubated for 10 min at 95° C. For western blot analysis the proteins were separated by SDS-PAGE, blotted on a PVDF membrane and developed with specific primary antibodies (α-Ubc9 (H81, Santa Cruz), α-pY701-STAT1 (Tyr701, Cell Signaling), α-STAT1 (Cell Signaling), α-p53 (1C12, Cell Signaling), α-SUMO1 (Cell Signaling), a horseradish peroxidase (HRP)-conjugated secondary antibody (different companies), the ECL+ (Amersham) or Immobilon™ Western (Millipore) and the LAS-3000 imaging system (Fuji).” left out
(§2) As shown above, the SUMOylation of a protein of interest can be induced by the heterodimerisation with a binding protein fused to Ubc9. […] Therefore the protein pairs were coexpressed with EGFP-SUMO1 in HEK293 cells and after 24h the transfectants were lysed and the protein extracts were analyzed in western blots. […]

U-PSMC3 = molecular target: T9, U-PSMC3 (Homo sapiens, UniProt P17980+P63279); test: Trans-SUMOylation by U-PSMC3; design: key: (++), strong TransSUMOylation; (+), TransSUMOylation; (+/−) weak TransSUMOylation; (−) no detectable TransSUMOylation; conditions: protein 2 construct coexpressed with U-PSMC3 and EGFP-SUMO1 in HEK293; western blot; Table 1
T9 construct: expressed in transfected cells; host or cells: HEK293
Excerpt: To identify new SUMOylation substrates and to study the function of SUMOylation the Ubc9/substrate dimerisation-dependent SUMOylation system (USDDS) was developed which consists of fusions of the SUMOylation substrate and of the SUMO-conjugating enzyme Ubc9 to the chemically activatable heterodimerisation domains FKBP and FRB, respectively, as shown in FIG. 2. When the substrate protein fused to FKBP is coexpressed with Ubc9-FRB, treatment of HEK293 cells with the rapamycin-related dimerizer AP21967 induces SUMOylation of the substrate protein fused to FKBP at its specific SUMOylation site. […] Dependent on an EcoRl site in the coding sequence, seven C-terminal amino acids of the human STAT1a in the STAT1-FKBP/FRB fusion proteins are missing. For the SUMOylation analysis HEK293 (human embryonic kidney cells) cells have been used. HEK293 cells were cultured in Dulbecco's modified Eagle's medium with high glucose, complemented with 10% fetal calf serum, 2 mM L-glutamine, 100 U/ml penicillin and […] streptomycin. […]
as §2

[1] = protein 2 construct coexpressed with P53-U (p53-U) and EGFP-SUMO1 in HEK293, Table 1
[2] = MEKK1ca (Table 1B: MEKK1) coexpressed, Table 1
[3] = protein 2 construct coexpressed with p53-U and EGFP-SUMO1 in HEK293, Table 2

T3 sequence (P05412+P63279 fused): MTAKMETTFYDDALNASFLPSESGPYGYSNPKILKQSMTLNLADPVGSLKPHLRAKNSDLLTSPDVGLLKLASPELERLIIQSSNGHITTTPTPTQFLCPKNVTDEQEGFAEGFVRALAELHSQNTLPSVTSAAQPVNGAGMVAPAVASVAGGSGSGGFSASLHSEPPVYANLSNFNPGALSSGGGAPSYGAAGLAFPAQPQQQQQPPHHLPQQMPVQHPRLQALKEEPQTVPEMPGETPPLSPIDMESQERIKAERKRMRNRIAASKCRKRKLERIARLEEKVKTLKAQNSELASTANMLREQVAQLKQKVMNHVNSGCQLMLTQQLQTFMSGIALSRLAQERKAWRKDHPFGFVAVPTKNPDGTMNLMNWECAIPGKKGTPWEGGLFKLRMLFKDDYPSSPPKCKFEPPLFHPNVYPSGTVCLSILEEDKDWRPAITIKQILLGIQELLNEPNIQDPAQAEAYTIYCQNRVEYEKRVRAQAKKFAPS
T2 sequence (P63279+P49137 fused): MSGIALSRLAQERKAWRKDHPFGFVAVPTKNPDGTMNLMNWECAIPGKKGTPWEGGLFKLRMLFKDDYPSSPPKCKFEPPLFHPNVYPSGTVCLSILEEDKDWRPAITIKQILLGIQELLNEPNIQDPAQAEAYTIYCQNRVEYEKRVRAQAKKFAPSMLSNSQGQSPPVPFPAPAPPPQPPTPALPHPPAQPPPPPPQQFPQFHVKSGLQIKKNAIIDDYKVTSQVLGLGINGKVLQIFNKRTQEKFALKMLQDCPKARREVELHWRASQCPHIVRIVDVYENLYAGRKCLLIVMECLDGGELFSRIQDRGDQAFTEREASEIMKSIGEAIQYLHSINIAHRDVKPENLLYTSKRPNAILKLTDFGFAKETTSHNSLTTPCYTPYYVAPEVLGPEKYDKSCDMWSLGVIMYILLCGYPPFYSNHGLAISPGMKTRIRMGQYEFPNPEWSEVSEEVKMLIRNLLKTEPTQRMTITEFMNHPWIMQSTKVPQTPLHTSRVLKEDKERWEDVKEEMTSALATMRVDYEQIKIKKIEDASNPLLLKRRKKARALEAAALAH
T7 sequence (P63279+Q8IW41 fused): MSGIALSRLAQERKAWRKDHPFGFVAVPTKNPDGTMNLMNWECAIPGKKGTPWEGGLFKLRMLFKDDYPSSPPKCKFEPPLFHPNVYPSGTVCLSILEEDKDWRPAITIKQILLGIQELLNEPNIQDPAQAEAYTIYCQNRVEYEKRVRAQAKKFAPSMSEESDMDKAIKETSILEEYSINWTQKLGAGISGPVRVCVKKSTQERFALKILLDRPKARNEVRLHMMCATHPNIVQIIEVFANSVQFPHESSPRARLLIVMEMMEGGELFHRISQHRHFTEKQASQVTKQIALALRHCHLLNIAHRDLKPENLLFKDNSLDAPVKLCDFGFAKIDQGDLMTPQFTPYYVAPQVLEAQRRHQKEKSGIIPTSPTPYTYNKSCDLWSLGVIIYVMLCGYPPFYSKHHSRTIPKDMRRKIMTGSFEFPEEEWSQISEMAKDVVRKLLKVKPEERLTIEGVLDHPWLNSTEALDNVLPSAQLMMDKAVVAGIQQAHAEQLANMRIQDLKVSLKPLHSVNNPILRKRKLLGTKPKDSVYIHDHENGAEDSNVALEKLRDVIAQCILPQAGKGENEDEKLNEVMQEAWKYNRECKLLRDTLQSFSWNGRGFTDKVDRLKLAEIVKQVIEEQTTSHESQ
T4 sequence (P63279+Q16539 fused): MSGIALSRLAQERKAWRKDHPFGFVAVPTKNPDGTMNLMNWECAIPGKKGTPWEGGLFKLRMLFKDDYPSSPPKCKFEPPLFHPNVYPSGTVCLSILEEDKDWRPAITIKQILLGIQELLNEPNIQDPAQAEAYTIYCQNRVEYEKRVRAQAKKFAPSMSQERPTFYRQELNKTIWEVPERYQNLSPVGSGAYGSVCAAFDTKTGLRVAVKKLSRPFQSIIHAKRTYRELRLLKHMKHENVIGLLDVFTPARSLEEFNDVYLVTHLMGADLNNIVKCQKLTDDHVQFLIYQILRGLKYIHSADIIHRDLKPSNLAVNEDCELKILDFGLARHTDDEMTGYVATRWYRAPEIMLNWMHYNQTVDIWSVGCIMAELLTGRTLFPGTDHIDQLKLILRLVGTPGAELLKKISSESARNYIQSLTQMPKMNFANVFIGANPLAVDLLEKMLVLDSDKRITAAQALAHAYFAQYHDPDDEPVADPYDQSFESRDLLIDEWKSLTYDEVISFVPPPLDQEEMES
T8 sequence (P63279+P67870 fused): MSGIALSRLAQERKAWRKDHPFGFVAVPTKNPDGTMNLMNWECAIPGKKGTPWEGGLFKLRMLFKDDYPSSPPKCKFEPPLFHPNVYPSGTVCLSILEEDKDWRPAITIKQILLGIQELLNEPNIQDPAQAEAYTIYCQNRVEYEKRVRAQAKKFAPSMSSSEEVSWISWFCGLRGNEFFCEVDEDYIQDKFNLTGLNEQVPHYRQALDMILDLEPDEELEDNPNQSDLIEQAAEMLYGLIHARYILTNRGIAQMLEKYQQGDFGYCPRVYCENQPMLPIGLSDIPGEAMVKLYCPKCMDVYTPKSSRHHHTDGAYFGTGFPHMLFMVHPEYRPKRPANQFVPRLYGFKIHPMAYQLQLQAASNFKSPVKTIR
T6 sequence (P49137+P63279 fused): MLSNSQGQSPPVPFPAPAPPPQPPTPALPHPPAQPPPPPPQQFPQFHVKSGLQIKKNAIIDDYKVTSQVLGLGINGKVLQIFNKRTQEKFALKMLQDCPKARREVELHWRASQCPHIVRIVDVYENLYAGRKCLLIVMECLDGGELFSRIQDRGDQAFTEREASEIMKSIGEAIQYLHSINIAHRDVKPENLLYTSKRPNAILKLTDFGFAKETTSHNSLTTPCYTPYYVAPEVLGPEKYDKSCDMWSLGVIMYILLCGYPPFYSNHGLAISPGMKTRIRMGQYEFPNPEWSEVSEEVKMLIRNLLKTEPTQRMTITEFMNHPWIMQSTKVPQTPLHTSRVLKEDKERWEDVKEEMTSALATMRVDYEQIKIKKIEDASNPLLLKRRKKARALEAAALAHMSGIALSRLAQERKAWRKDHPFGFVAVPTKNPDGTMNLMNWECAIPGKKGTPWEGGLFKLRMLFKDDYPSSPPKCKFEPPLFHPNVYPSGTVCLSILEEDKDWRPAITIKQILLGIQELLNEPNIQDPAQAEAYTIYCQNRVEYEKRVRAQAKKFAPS
T1 sequence (P67870+P63279 fused): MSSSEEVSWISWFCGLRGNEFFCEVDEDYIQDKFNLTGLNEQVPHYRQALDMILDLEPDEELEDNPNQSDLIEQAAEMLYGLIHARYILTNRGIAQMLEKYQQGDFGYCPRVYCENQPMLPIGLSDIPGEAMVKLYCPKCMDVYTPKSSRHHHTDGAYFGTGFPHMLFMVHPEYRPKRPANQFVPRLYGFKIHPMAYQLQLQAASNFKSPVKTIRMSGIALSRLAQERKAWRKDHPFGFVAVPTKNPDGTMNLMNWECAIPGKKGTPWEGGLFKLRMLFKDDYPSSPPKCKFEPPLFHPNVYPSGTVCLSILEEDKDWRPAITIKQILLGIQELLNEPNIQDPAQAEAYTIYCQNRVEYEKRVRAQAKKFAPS
T9 sequence (P63279+P17980 fused): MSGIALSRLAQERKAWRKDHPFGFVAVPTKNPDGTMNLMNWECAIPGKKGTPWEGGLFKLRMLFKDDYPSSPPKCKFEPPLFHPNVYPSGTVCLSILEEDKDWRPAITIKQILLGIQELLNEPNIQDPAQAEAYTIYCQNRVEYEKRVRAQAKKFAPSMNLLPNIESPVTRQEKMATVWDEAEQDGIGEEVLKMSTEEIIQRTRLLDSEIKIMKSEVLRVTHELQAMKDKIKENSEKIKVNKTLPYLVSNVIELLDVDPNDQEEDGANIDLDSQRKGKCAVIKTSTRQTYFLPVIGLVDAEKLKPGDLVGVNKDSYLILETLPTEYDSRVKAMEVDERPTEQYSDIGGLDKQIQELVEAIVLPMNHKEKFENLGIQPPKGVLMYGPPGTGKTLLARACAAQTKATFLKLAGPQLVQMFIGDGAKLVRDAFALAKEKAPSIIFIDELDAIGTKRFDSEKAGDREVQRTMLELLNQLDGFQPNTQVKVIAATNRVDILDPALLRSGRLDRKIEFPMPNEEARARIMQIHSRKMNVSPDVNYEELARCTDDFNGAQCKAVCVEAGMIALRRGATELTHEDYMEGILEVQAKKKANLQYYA

Substance: p53K386R-ST(377-391): p53K386R fused to SUMOylation site tag 377-391
- Trans-SUMOylation (CSNK2B-U; western blot): +
- Trans-SUMOylation (U-MK2; western blot, Table 2): −

Substance: HA-ERK2: ERK2 fused to HA tag
- Trans-SUMOylation (JUN-U): −
- Trans-SUMOylation (U-MK2; western blot, Table 1): +
- Trans-SUMOylation (U-p38α; western blot, Table 1): +
- Trans-SUMOylation (p53-U; [1]): +

Substance: HA-CSNK2B: CSNK2B fused to HA tag
- Trans-SUMOylation (CSNK2B-U; MEKK1ca coexpressed): + (MEKK1ca)

Substance: Myc-MK2: MK2 fused to Myc tag
- Trans-SUMOylation (JUN-U): −
- Trans-SUMOylation (U-MK2; MEKK1 coexpressed, Table 2): + (MEKK1)
- Trans-SUMOylation (U-MK2; western blot, Table 2): −
- Trans-SUMOylation (MK2-U; MEKK1 coexpressed, Table 2): + (MEKK1)
- Trans-SUMOylation (MK2-U; western blot, Table 2): +
- Trans-SUMOylation (U-p38α; [2]): ++ (MEKK1ca)
- Trans-SUMOylation (U-p38α; western blot, Table 1): +
- Trans-SUMOylation (U-MK5; Table 2): +
- Trans-SUMOylation (p53-U; [3]): −
- Trans-SUMOylation (U-CSNK2B; Table 2): (+/−)

Substance: GST-PSMC3: PSMC3 fused to GST tag
- Trans-SUMOylation (MK2-U; western blot, Table 2): −
- Trans-SUMOylation (U-PSMC3): +

Substance: GST-ERK3: ERK3 fused to GST tag
- Trans-SUMOylation (U-MK2; western blot, Table 2): −
- Trans-SUMOylation (U-p38α; western blot, Table 2): −
- Trans-SUMOylation (U-MK5; Table 1): +

Substance: GST-MK2: MK2 fused to GST tag
- Trans-SUMOylation (JUN-U): −
- Trans-SUMOylation (U-MK2; MEKK1 coexpressed, Table 2): ++ (MEKK1)
- Trans-SUMOylation (U-MK2; western blot, Table 2): +
- Trans-SUMOylation (MK2-U; MEKK1 coexpressed, Table 2): ++ (MEKK1)
- Trans-SUMOylation (MK2-U; western blot, Table 2): +
- Trans-SUMOylation (U-p38α; [2]): ++ (MEKK1ca)
- Trans-SUMOylation (U-p38α; western blot, Table 1): +
- Trans-SUMOylation (U-MK5; Table 2): (+/−)
- Trans-SUMOylation (p53-U; [3]): −
- Trans-SUMOylation (U-CSNK2B; Table 2): (+/−)

Substance: FLAG-p38α: p38α fused to FLAG tag
- Trans-SUMOylation (JUN-U): −
- Trans-SUMOylation (U-MK2; western blot, Table 1): +
- Trans-SUMOylation (MK2-U; western blot, Table 1): +
- Trans-SUMOylation (U-MK5; Table 1): +
- Trans-SUMOylation (p53-U; [1]): −
- Trans-SUMOylation (U-CSNK2B; Table 1): −
